Experimental findings from patent US20120094909A1 (Bristol-Myers Squibb, published 2012) are described below.

The target of experiment [1] is T1, human PCSK9 (proprotein convertase subtilisin kexin type 9) (human, UniProt Q8NBP7 31-692).
T1 construct: Directly immobilized (SPR ProteOn), biotinylated (BLI), or in solution, depending on the assay; also called hPCSK9
The experiment is described as follows: SPR ProteOn, 25 C. How it is done: (§1) The binding characteristics were characterized by Surface Plasmon Resonance (SPR). […] This allowed kinetic determination in the absence of regeneration. […] Evaluation of the kinetic parameters was performed using the Langmuir interaction model and constant parameter fitting with the ProteOn Manager software.

Experiment [2] concerns the target T2, cynomolgus monkey PCSK9 (cynomolgus monkey, UniProt A0A7N9D9N8 150-747). The experiment is described as follows: SPR ProteOn, 25 C. The protocol:
as §1

Experiment [3] has as its target T1, human PCSK9 (proprotein convertase …). As to the kind of experiment: cell-based or functional assay.
Experiment [4] shares this target. The experiment is described as follows: FRET, competitor ATI000972. An excerpt: (§2) Table 11 summarizes the overall data from these three FRET assays.
Experiment [5] has the same target. As to the kind of experiment: FRET, competitor EGFA peptide.
Text: as §2

Experiment [6] deals with T2, cynomolgus monkey PCSK9. The experiment is described as follows: FRET, competitor EGFA peptide.
Text: as §2

Experiment [7] deals with T1, human PCSK9 (proprotein convertase …). The experiment is described as follows: SPR ProteOn, PCSK9 immobilized, 25 C. How it is done:
as §1

Experiment [8] addresses T2, cynomolgus monkey PCSK9. The experiment is described as follows: SPR ProteOn, PCSK9 immobilized, 25 C. How it is done:
as §1

For experiment [9], the target named is T1, human PCSK9 (proprotein convertase …). The experiment is described as follows: BLI, biotinylated hPCSK9 on sensor tips. In general terms: Biolayer interferometry detects binding as a change in optical thickness at a sensor tip.
Experiment [10] has the same target. As to the kind of experiment: FRET direct binding, anti-his6 antibody.
Text: as §2

For experiment [11], the target named is T3, cynomolgus monkey PCSK9 (cynomolgus monkey, UniProt A0A7N9D9N8 150-747).
T3 construct: also called cyno PCSK9; cPCSK9
As to the kind of experiment: SPR ProteOn, 25 C. The protocol:
as §1

The target in experiment [12] is T3, cynomolgus monkey PCSK9. As to the kind of experiment: FRET, competitor EGFA peptide.
Text: as §2

For experiment [13], the target named is T3, cynomolgus monkey PCSK9. The experiment is described as follows: SPR ProteOn, PCSK9 immobilized, 25 C. The protocol:
as §1

The term Kd denotes the free concentration of one partner at which half of the binding sites on the other are occupied at equilibrium, for simple one-to-one binding. For orientation: IC50 means the point on the concentration scale where inhibition reaches its midpoint. Usually EC50 stands for the midpoint of the concentration-response curve. What is called koff is a measure of how fast the partners let go of each other. As a reminder, the kon is the second-order rate constant of association.

B1: 1922G04 (designed binder)
chain: MGVSDVPRDLEVVAATPTSLLISWRPPSHAYGYYRITYGETGGNSPVQEFTVPIGKGTATISGLKPGVDYTITVYAVEYPWKGSGYYHRPISINYRTEIDKPSQHHHHHH
notes: Anti-PCSK9 Adnectin, His6-tagged; also called ATI001057; ATI-1057
In the case of B1, the equilibrium dissociation constant (Kd) came to 0.09 nM in [1]; 15 nM in the experiment with cynomolgus monkey PCSK9 [2]; 0.094 nM in [7]; 15 nM in the experiment with cynomolgus monkey PCSK9 [8]; 0.255 nM in experiment [9]. For the same molecule, the “LDLR Depletion EC50” value in experiment [3] is 10 nM. Besides, the 50% inhibitory concentration (IC50) is 2 nM in [4] and 1.2 nM in [5]. The EC50 is 1.2 nM in [5], 26.6 nM in the experiment with cynomolgus monkey PCSK9 [6] and 2.5 nM in experiment [10]. Besides, the koff in experiment [7] was found to be 5.08e-05 s⁻¹; with cynomolgus monkey PCSK9 [8], 0.007 s⁻¹; in experiment [9], 0.00014 s⁻¹. In addition, the kon in experiment [7] is 541000 M⁻¹ s⁻¹; in the experiment with cynomolgus monkey PCSK9 [8] it was 465000 M⁻¹ s⁻¹; in experiment [9], 532000 M⁻¹ s⁻¹.

B2: 2011H05 (designed binder)
chain: MGVSDVPRDLEVVAATPTSLLISWVPSSHAYGYYRITYGETGGNSPVQEFTVPVGVGTATISGLKPGVDYTITVYAVEYAFEGAGYYHRPISINYRTEIDKPSQHHHHHH
notes: Anti-PCSK9 Adnectin, His6-tagged; also called ATI001091
Take B2: the Kd in [1] stood at 0.08 nM; with cynomolgus monkey PCSK9 [2], 23.1 nM; in [7], 0.079 nM; in the experiment with cynomolgus monkey PCSK9 [8], 23.1 nM; in experiment [9] it was 0.293 nM. Also, in [3], the “LDLR Depletion EC50” value amounted to 12 nM. Also, the results for the IC50 in experiment [4] and in experiment [5] were 1.4 nM and 2.7 nM, respectively. The values for the EC50 (in experiment [5]; with cynomolgus monkey PCSK9 [6]; in [10]) were 2.7 nM, 17.2 nM and 2 nM, respectively. The off-rate (koff) is 9.76e-06 s⁻¹ in experiment [7], 0.0044 s⁻¹ with cynomolgus monkey PCSK9 [8] and 8.2e-05 s⁻¹ in [9]. Moreover, the values for the association rate constant (kon) (in experiment [7]; with cynomolgus monkey PCSK9 [8]; in experiment [9]) were 118000 M⁻¹ s⁻¹, 190000 M⁻¹ s⁻¹ and 286000 M⁻¹ s⁻¹, respectively.

B3: 2012A04 (designed binder)
chain: MGVSDVPRDLEVVAATPTSLLISWRPPSNGHGYYRITYGETGGNSPVQEFTVPVNEGTATISGLKPGVDYTITVYAVEFPFKWSGYYHRPISINYRTEIDKPSQHHHHHH
notes: Anti-PCSK9 Adnectin, His6-tagged
On to B3, for which the Kd in experiment [1] amounted to 0.25 nM; in the experiment with cynomolgus monkey PCSK9 [11] it was 24.3 nM; in experiment [7] it was 0.251 nM; in the experiment with cynomolgus monkey PCSK9 [13], 24.3 nM. For the same molecule, the “LDLR Depletion EC50” value in [3] was determined as 12 nM. Moreover, the 50% inhibitory concentration (IC50) was found to be 1.2 nM in experiment [4] and 2.1 nM in experiment [5]. Further, the results for the 50% effective concentration (EC50) (in [5]; in the experiment with cynomolgus monkey PCSK9 [12]; in experiment [10]) were 2.1 nM, 70.3 nM and 1.4 nM, respectively. The results for the koff (in [7]; with cynomolgus monkey PCSK9 [13]) were 6.47e-05 s⁻¹ and 0.00475 s⁻¹, respectively. Moreover, the association rate constant (kon) in [7] is 259000 M⁻¹ s⁻¹; in the experiment with cynomolgus monkey PCSK9 [13] it was 195000 M⁻¹ s⁻¹.
